Assay results: article PMC9410886

Molecular target: mouse mammary tumor virus (MMTV) integrase (IN) (mouse mammary tumor virus (MMTV))
Assay: cryo-EM structure; octameric MMTV STC intasome: IN assembled on branched DNA, purified on Superdex 200 in 25 mM Tris-HCl pH 7.4, 200 mM NaCl, 2 mM DTT, 25 uM ZnCl2, 10 mM CaCl2; C2 symmetry, 3.5 Å global resolution

mouse mammary tumor virus (MMTV) integrase (IN) (enzyme)
stoichiometry N: 8
